Measured values as given in PMC6237427.

What was measured:
[1] = biological target: HIV-1 426c.DM (N460D.N463D) Env on Env-pseudotyped virus produced in 293S GnT1- cells (HIV-1)
[2] = biological target: HIV-1 426c.TM4 (S278R.G471S.N460D.N463D) Env on Env-pseudotyped virus produced in 293S GnT1- cells (HIV-1)
[3] = biological target: HIV-1 426c.TM4 (S278R.G471S.N460D.N463D) Env on Env-pseudotyped virus produced in 293T cells (HIV-1)
[4] = biological target: HIV-1 426c.SM (N276D) Env on Env-pseudotyped virus produced in 293S GnT1- cells (HIV-1)
[5] = biological target: HIV-1 426c.TM1 (N276D.N460D.N463D) Env on Env-pseudotyped virus produced in 293S GnT1- cells (HIV-1)
[6] = biological target: HIV-1 426c Env on Env-pseudotyped virus produced in 293S GnT1- cells (HIV-1)
germline-reverted VRC01 = assay: BLI; Octet Red, 29°C, shaking 500 r.p.m.; germline-reverted VRC01 IgG immobilised on anti-AHC biosensors (40 μg/ml in PBS); Env gp140 trimers in 2-fold dilution series (4 μM to >250 nM) in kinetic buffer (1X PBS pH7.4, 0.1% BSA, 0.02% Tween 20, 0.05% NaN3); 300 s association, 600 s dissociation; 1:1 binding model; relative apparent affinities
[7] = biological target: HIV-1 TRO.11 Env on Env-pseudotyped virus produced in 293T cells (HIV-1)
[8] = biological target: HIV-1 TRO.11 Env on Env-pseudotyped virus produced in 293S GnT1- cells (HIV-1)
[9] = biological target: HIV-1 426c.TM1 (N276D.N460D.N463D) Env on Env-pseudotyped virus produced in 293T cells (HIV-1)
[10] = biological target: HIV-1 426c.SM (N276D) Env on Env-pseudotyped virus produced in 293T cells (HIV-1)
[11] = biological target: HIV-1 426c Env on Env-pseudotyped virus produced in 293T cells (HIV-1)
[12] = biological target: HIV-1 426c.DM (N460D.N463D) Env on Env-pseudotyped virus produced in 293T cells (HIV-1)

Substance	IC50 of neutralization of the Env-pseudotyped virus in TZM-bl cells [1] [µg/mL]	IC50 of neutralization of the Env-pseudotyped virus in TZM-bl cells [2] [µg/mL]	IC50 of neutralization of the Env-pseudotyped virus in TZM-bl cells [3] [µg/mL]	IC50 of neutralization of the Env-pseudotyped virus in TZM-bl cells [4] [µg/mL]	IC50 of neutralization of the Env-pseudotyped virus in TZM-bl cells [5] [µg/mL]	IC50 of neutralization of the Env-pseudotyped virus in TZM-bl cells [6] [µg/mL]	Kd (germline-reverted VRC01) [nM]	koff (germline-reverted VRC01) [s⁻¹]	kon (germline-reverted VRC01) [M⁻¹ s⁻¹]	IC50 of neutralization of the Env-pseudotyped virus in TZM-bl cells [7] [µg/mL]	IC50 of neutralization of the Env-pseudotyped virus in TZM-bl cells [8] [µg/mL]	IC50 of neutralization of the Env-pseudotyped virus in TZM-bl cells [9] [µg/mL]	IC50 of neutralization of the Env-pseudotyped virus in TZM-bl cells [10] [µg/mL]	IC50 of neutralization of the Env-pseudotyped virus in TZM-bl cells [11] [µg/mL]	IC50 of neutralization of the Env-pseudotyped virus in TZM-bl cells [12] [µg/mL]
germline-reverted VRC07 (antibody)	> 25	1.7	> 25	0.76	1.6	> 25									
germline-reverted VRC23 (antibody)	> 25	> 25	> 25	> 25	> 25	> 25									
germline-reverted VRC18b (antibody)	> 25	17.3	> 25	> 25	23	> 25									
germline-reverted 12A12 (antibody)	> 25	0.63	> 25	> 25	> 25	> 25									
germline-reverted VRC04 (antibody)	> 25	> 25	> 25	> 25	> 25	> 25									
TM1 gp140 (GnT1-), uncleaved soluble 426c trimer (domain or fragment)							42.6	0.000229	5370						
germline-reverted VRC03 (antibody)	> 25	> 25	> 25	> 25	> 25	> 25									
426c N276D gp140 (GnT1-), uncleaved soluble trimer (domain or fragment)							178	0.000739	11100						
germline-reverted 3BNC117 (antibody)	> 25	> 25	> 25	> 25	> 25	> 25									
germline-reverted VRC20 (antibody)	> 25	0.03	2.39	10.3	4.6	> 25									
426c N276D gp140 (293T), uncleaved soluble trimer (domain or fragment)							58.8	0.000193	9010						
germline-reverted VRC01 (antibody)	> 50	0.36	> 25	0.99	1.37	> 50				> 50	> 50	> 50	> 50	> 50	> 50
TM1 gp140 (293T), uncleaved soluble 426c trimer (domain or fragment)							29.4	0.000148	5030						
